Assay results taken from the supplement of paper PMC9170038.

Test system: MS2 coat protein
Assay: apparent KD of MS2 coat protein; designed switch direction (-1 OFF switch, 1 ON switch): -1; higher = weaker reporter binding
In short: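 Normalised cluster fluorescence was curve-fitted, and each design's median over clusters is its apparent KD. Before this, SNAP-549-labelled MS2 coat protein was titrated from 0.7 or 1.5 nM, doubling to 3 µM, over RNA switches transcribed on Illumina chips by stalled E. coli RNA polymerase. Titrations had no input, 200 uM small-molecule ligand, or an oligonucleotide input, and steps lasted 0.8–1.5 h (lowest) to 10–20 min (highest).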

[1] = input ligand: microRNA oligo, concentration not stated
[2] = Eterna round: R95, input ligand: microRNA oligo, concentration not stated
[3] = Eterna round: R95, input ligand: FMN 200 uM
[4] = Eterna round: R95, input ligand: none

Row | Sequence | apparent KD of MS2 coat protein (input ligand: FMN 200 uM) | apparent KD of MS2 coat protein (input ligand: none) | apparent KD of MS2 coat protein [1] | apparent KD of MS2 coat protein [2] | apparent KD of MS2 coat protein [3] | apparent KD of MS2 coat protein [4]
1 | GCCUUAUCUGUCAGGAUAUACAAUAAAAUAAUUAAGUAGAAGGGACAUGAGGAUCACCCAUGUACAUUACAUUG [alecazam26] (Eterna round: R97, puzzle: Brourd's mod of Exclusion 4) | 0.0674 µM | 0.0179 µM | – | – | – | –
2 | ACGAGGAUUACAGGAUAUGAAGCUAAAACGGCGUUAGAAGGGUAUACAGAGUUACAUGAGGAUCACCCAUGUUGUGAUUUCGAA [AK ExNG1-V2-4.1] (Eterna round: R96, puzzle: Exclusion NG 1) | 0.158 µM | 0.134 µM | 0.115 µM | – | – | –
3 | UAUGUGUCAGGAUAUCGAUUAGAACAGAAUUUAACAAUAGUCGAGAAGGGACAUGAGGAUCACCCAUGUUCAUC [JR_Ex4_Sub022] (Eterna round: R97, puzzle: Exclusion 4) | 0.0264 µM | 0.0189 µM | – | – | – | –
4 | UCUGUUAUGCGAGGAUAUCGACCAUUCCUCUUAACAUGAGGAUCACCCAUGUGCUAAACCUACAACGAGAAGGCGCUCAUACUC [JR_ExcNG2_Sub068] (Eterna round: R96, puzzle: Exclusion NG 2) | 0.156 µM | 0.143 µM | 0.102 µM | – | – | –
5 | UUAAAUCAUGUAGGAUAUGCGUGGCGAAGCUAUGCAGAAGGACAUGAGGAUCACCCAUGUGCUUCCGUCUGCGUACAGACGGUA [JL ENG1 1.14] (Eterna round: R96, puzzle: Exclusion NG 1) | 0.258 µM | 0.0912 µM | 0.0792 µM | – | – | –
6 | UUUUAACAUGAGGAUCACCCAUGUGAGGAUAUCGAAAUUUAUAUUAAUAUUAAUUAAUCGAGAAGGCACAUUUU [JMF 28] (puzzle: Exclusion 1) | – | – | – | 0.0974 µM | – | –
7 | GUUUGCAGACGGAGAUCCUACAUGAGGAUCACCCAUGUCUCACUAGCUUUUUGCUCGUCUUAUCCUCCUCUGUUCUC [Elimod 27 - Jieux - Sensor, turn-off variant 1] (Eterna round: R97, puzzle: Sensor, turn-off variant 1) | 0.26 µM | 0.303 µM | – | – | – | –
8 | AUUGUGUUAGGAUAUGCUUAUGGUGGGUAGUCCAGUAUGGAGUAGAAGGGACAUGAGGAUCACCCAUGUGCUCA [EX4 #38] (Eterna round: R97, puzzle: Exclusion 4) | 0.215 µM | 0.137 µM | – | – | – | –
9 | UACACCGCAUGAGGAUCAAACAUGAGGAUCACCCAUGUGUAGCAAGCUUUUUGCUCGUCUUAUAAAUAUGUGGUGUA [Electric Eye 9 - Jieux - Sensor, turn-off variant 1] (Eterna round: R97, puzzle: Sensor, turn-off variant 1) | 0.0126 µM | 0.013 µM | – | – | – | –
10 | GCUUUAUGCUCGUUAUAACACAUGAGGAUCACCCAUGUUCGGGCUUACGAGUCGUUCUGAAUGUGACCCUGCAUGAG [Eternabot (L2) Solution 47] (Eterna round: R97, puzzle: Sensor, turn-off variant 1) | 0.2 µM | 0.193 µM | – | – | – | –
11 | CUUUAGUGAGGAUAUGUGGCUUCGAUCGUGAGAUCGAGGCUACAGAAGGCACAUGAGGAUCACCCAUGUUCCUC [jl-ex4-4.01 salish99 mod] (Eterna round: R97, puzzle: Exclusion 4) | 0.464 µM | 0.0341 µM | – | – | – | –
12 | UUUUUAGUGCUUUUUAAGUACAUGAGGAUCACCCAUGUACUUGUCUGGUGGUCCGGACAAGCUUUUUGCUCGUCUAG [Sensor v3 - turn-off variant 1 - 3] (puzzle: Sensor v3, turn-off variant 1) | – | – | – | 0.0294 µM | 0.0324 µM | 0.0364 µM
13 | GGCGGACAUGAGGAUCACCCAUGUCAGGAUAUGGUGCGAUCGUCGAUAGACGAUAGCACCAGAAGGGACACGCC [Mat - Exclusion 1 - Eli Mod - D1] (Eterna round: R97, puzzle: Exclusion 1) | 0.0222 µM | 0.0198 µM | – | – | – | –
14 | UUGUGCACGCUGCGAUCCUACAUGAGGAUCACCCAUGUGGUCUGGUGGCGUGGGUCACCGGACUUGGCUCGUCUUGA [salish99_S_TOV1_R5_068] (Eterna round: R97, puzzle: Sensor, turn-off variant 1) | 0.118 µM | 0.129 µM | – | – | – | –
15 | UUGUUAUAUGUAGGAUAUGCGUAUUGUUAUUAUGCAGAAGGACAUGAGGAUCACCCAUGUAUAUUAUUAUUAUAUAUUAUAUAU [Title] (Eterna round: R96, puzzle: Exclusion NG 1) | 0.0878 µM | 0.0274 µM | 0.0222 µM | – | – | –
16 | GUUUGCACGCUGCGGUCCUACAUGAGGAUCACCCAUGUGGUCUGGUGGCGUGGGUCGCCGGACUUGGCUCGUCUUGA [salish99_S_TOV1_R5_038] (Eterna round: R97, puzzle: Sensor, turn-off variant 1) | 0.0172 µM | 0.0169 µM | – | – | – | –
17 | AAAUUCUGAGGAUAUCGAUGUUUGUACAUGAGGAUCACCCAUGUCCUUUUUAUUUUUUCUCGAGAAGGCAGUGUAU [JR_E5_Sub100] (puzzle: Exclusion 5) | – | – | – | 0.0342 µM | – | –

Row | Sequence | apparent KD of MS2 coat protein (input ligand: FMN 200 uM) | apparent KD of MS2 coat protein (input ligand: none) | apparent KD of MS2 coat protein [1] | apparent KD of MS2 coat protein [2] | apparent KD of MS2 coat protein [3] | apparent KD of MS2 coat protein [4]
18 | GGAGGAAACGUAGGAUAUUGAAUAAAGCGGAAACGCAAGACAUGAGGAUCACCCAUGUGUCCGGACGAGAAGGGCGAAGAAGAA [AK 1] (Eterna round: R96, puzzle: Exclusion NG 2) | 0.0598 µM | 0.0808 µM | 0.0601 µM | – | – | –
19 | UUUUAACAUGAGGAUCACCCAUGUGAGGAUAUCGAAAUUUAUAUUUAUAUUAAUAUAACGAGAAGGCACAUUUU [JMF 79] (puzzle: Exclusion 1) | – | – | – | 0.0582 µM | – | –
20 | CCUCAGUGAGGAUAUGCUGCCGCCGUGAAUACACACCGCGCGUAGAAGGCACAUGAGGAUCACCCAUGUGAAGG [Eternabot (Original) Solution 9] (Eterna round: R97, puzzle: Exclusion 4) | 0.354 µM | 0.0977 µM | – | – | – | –
21 | AGAAAGGUAGGAUAUACGAAAAAAAAGGGUAGAAAAAAAACACAUGAGGAUCACCCAUGUAGAAGGACCAAAGA [Mat - Exclusion 2 - Tesla mod - D31] (Eterna round: R96, puzzle: Exclusion 2) | – | – | 0.0276 µM | – | – | –
22 | UACAUGAGGAUCACCCAUGUUUUGUCGUGUAUGGUAUUUAUCUAGGAUAUCAUUUUAUUUAGGUAUGAGAAGGAGAAUAUUAAU [JMF's solution 93] (Eterna round: R96, puzzle: Exclusion NG 3) | – | – | 0.0239 µM | – | – | –
23 | AAAUAGCGAGGAUAUACUGUAUACGAAAGUAUACGCAUGGCACAUGAGGAUCACCCAUGUAGAAGGCGCUAUAA (Eterna round: R97, puzzle: Exclusion 2) | 0.0434 µM | 0.0223 µM | – | – | – | –
24 | AACAGUAGAGGAUAUACAUGAGGAUCACCCAUGUGAUAUUUACGUGGCGUACCACGAAGUAGAAGGCUACUGGA [JL Maslow Revisted mod 14] (Eterna round: R96, puzzle: Exclusion 3) | 0.512 µM | 0.0348 µM | 0.0325 µM | – | – | –
25 | AGUACUAACACGAUAGUGUUAGUACAAUAAGCUUGUGUUACAUGAGGAUCACCCAUGUCCUCAUAAGCUCGUCUUAU [Mat - Sensor v3 - Turn-off var 2 - D54] (puzzle: Sensor v3, turn-off variant 2) | – | – | – | 0.0304 µM | 0.105 µM | 0.129 µM
26 | ACAUGAGGAUCACCCAUGUUCGGCUGGUCCGUUUCGGCUGUCGAGGAUAUAGUUCGGUGUCCGCGCUAGAAGGCGGGAGCCGGC [Aenatbe mod 63] (Eterna round: R96, puzzle: Exclusion NG 3) | 0.153 µM | 0.0785 µM | 0.0545 µM | – | – | –
27 | AACUGGACAGGAUAUGUACUUGAGCACUUGAGGAUCACCCAAGUCAUCAAGUACUCAGGCACAGAAGGGUUUAUGA [jl-ex5.4.61 ViennaUCT mod] (Eterna round: R97, puzzle: Exclusion 5) | 0.142 µM | 0.132 µM | – | – | – | –
28 | CUAGUAUAUCAGGAUAUGAUAGCUUAUAGCAUAUCAGAAGGGAUUACAUGAGGAUCACCCAUGUGAAGGGAUGA [eternacac ex6r4 sub17] (Eterna round: R97, puzzle: Exclusion 6) | 0.331 µM | 0.275 µM | – | – | – | –
29 | AGGUGCUUCUGGAGACAUGAGGAUCACCCAUGUUGAGUUAGCGAGGAUAUCGGUAAUGCAUGUGAUGAGAAGGCGCAAACCGAU [Ex NG3 #48] (Eterna round: R96, puzzle: Exclusion NG 3) | 0.0368 µM | 0.0461 µM | 0.0403 µM | – | – | –
30 | UUCUUUAUACGAGGAUAUCAUACAUGAGGAUCACCCAUGUGGCUGGGUCUGUUUUUAUAUAAUAUUGAGAAGGCGUUUUUCUAU [JR_ExcNG2_Sub073] (Eterna round: R96, puzzle: Exclusion NG 2) | 0.291 µM | 0.0789 µM | 0.0798 µM | – | – | –
31 | GCACUGCGAGGAUAUACAUGAGGAUCACCCAUGUGUCGGCAGCCACGGUAGUACAAGUGUAGAAGGCGCGUUAG [EX3 #47] (Eterna round: R97, puzzle: Exclusion 3) | 0.14 µM | 0.0691 µM | – | – | – | –
32 | CUUAGACAUGAGGAUCACCCAUGUGAGGAUAUGAUGCGAAUGAAGAAAGAAGGAAGCAUCAGAAGGCACAUAUG [Mat - Mod of Hyphema D26] (puzzle: Exclusion 1) | – | – | – | 0.163 µM | 0.323 µM | 0.143 µM
33 | GCGUACUGAGGAUAUACAUGAGGAUCACCCAUGUAACACAGCAUAUAUAGAUAUUUUUGUAGAAGGCAGUAUGC [JR_Ex3_Sub057] (Eterna round: R97, puzzle: Exclusion 3) | 0.0402 µM | 0.0175 µM | – | – | – | –
